Assay results reported in patent US20260144882A1 (BIO THERA SOLUTIONS, published 2026).
Where a chain is given by its changes, count along the chain named.

T1: human Nectin-4 extracellular antigen hNectin-4-His (human, UniProt Q96NY8 32-349)
T1 construct: C-terminal 8xHis tag included
T1 sequence: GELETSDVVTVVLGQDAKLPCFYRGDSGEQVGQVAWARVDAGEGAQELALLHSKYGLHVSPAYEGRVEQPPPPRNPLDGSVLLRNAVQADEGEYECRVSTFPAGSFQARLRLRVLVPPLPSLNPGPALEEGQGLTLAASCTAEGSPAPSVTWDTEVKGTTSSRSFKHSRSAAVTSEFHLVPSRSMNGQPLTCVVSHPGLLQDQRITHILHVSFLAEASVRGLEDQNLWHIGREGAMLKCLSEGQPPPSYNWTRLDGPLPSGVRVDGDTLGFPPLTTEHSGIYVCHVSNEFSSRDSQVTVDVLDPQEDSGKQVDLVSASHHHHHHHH

B1: 10F4-1D11 scFv (scFv, V domains shown)
VH: EVQLVESGGGLVQPGGSLRLSCAASGFIFSDFDMSWVRQAPGKGLEWVSGIKQSSAGINYADSVKGRFTISRDNSKNTLYLQMNSLRAEDTAVYYCAREYSDVVDYVSVRTPLDYWGQGTLVTVSS
VL: DIQMTQSPSSLSASVGDRVTITCRASQGISSYLAWYQQKPGKAPKLLIYAASSLQSGVPSRFSGSGSGTDFTLTISSLQPEDFATYYCQQHYTTPPTFGQGTKVEIKR
notes: phage clone supernatant
B2: 10F4-1E1 scFv (scFv, V domains shown)
VH: EVQLVESGGGLVQPGGSLRLSCAASGDIFGNYWMSWVRQAPGKGLEWVSSIDASSGNRFYADSVKGRFTISRDNSKNTLYLQMNSLRAEDTAVYYCAREYSDVVDYVSVRTPLDYWGQGTLVTVSS
VL: B1 VL
notes: phage clone supernatant
B3: 10F4-1B9 scFv (scFv, V domains shown)
VH: EVQLVESGGGLVQPGGSLRLSCAASGFNFDNYYMSWVRQAPGKGLEWVSSIYQTDASIFYADSVKGRFTISRDNSKNTLYLQMNSLRAEDTAVYYCAREYSDVVDYVSVRTPLDYWGQGTLVTVSS
VL: B1 VL
notes: phage clone supernatant
B4: 10F4-1C7 scFv (scFv, V domains shown)
VH: B2 VH with I28S, G30D, S50A, A53T, S54H, G56D, R58S
VL: B1 VL
notes: phage clone supernatant
B5: 10F4-1F1 scFv (scFv, V domains shown)
VH: B3 VH with N28S, D30S, Y33W, S50A, Y52S, Q53P, T54G, A56G, S57T
VL: B1 VL
notes: phage clone supernatant
B6: 10F4-5 scFv (scFv, V domains shown)
VH: EVQLVESGGGLVQPGGSLRLSCAASGFIFDGYDMSWVRQAPGKGLEWVSVIKDHGGYKFYADSVKGRFTISRDNSKNTLYLQMNSLRAEDTAVYYCAREYSDVVDYVSVRTPLDYWGQGTLVTVSS
VL: B1 VL
notes: phage clone supernatant
B7: 10F4-2C12 scFv (scFv, V domains shown)
VH: EVQLVESGGGLVQPGGSLRLSCAASGYNFGDYSMSWVRQAPGKGLEWVSVIDTTSAYTRYADSVKGRFTISRDNSKNTLYLQMNSLRAEDTAVYYCAREYSDVVDYVSVRTPLDYWGQGTLVTVSS
VL: B1 VL
notes: phage clone supernatant
B8: 10F4-1G7 scFv (scFv, V domains shown)
VH: B6 VH with F27Y, I28N, D30G, G31D, V50S, K52I, D53G, G56D, Y57T
VL: B1 VL
notes: phage clone supernatant
B9: 10F4-2E4 scFv (scFv, V domains shown)
VH: EVQLVESGGGLVQPGGSLRLSCAASGYTFDSYWMSWVRQAPGKGLEWVSAIDGTDSVAYYADSVKGRFTISRDNSKNTLYLQMNSLRAEDTAVYYCAREYSDVVDYVSVRTPLDYWGQGTLVTVSS
VL: B1 VL
notes: phage clone supernatant
B10: 10F4-2E8 scFv (scFv, V domains shown)
VH: B6 VH with I28N, D30G, G31N, V50S, K52I, D53P, G56D, K58S
VL: B1 VL
notes: phage clone supernatant
B11: 10F4-2A5 scFv (scFv, V domains shown)
VH: B7 VH with N28S, G30T, S33D, V50G, D52K, T54Y, S55K, A56S, Y57D, T58A
VL: B1 VL
notes: phage clone supernatant
B12: 10F4-1F9 scFv (scFv, V domains shown)
VH: B6 VH with I28S, D30G, Y32F, V50G, D53T, H54Y, K58R, F59S
VL: B1 VL
notes: phage clone supernatant
B13: 10F4-2E6 scFv (scFv, V domains shown)
VH: B2 VH with D27F, I28S, N31D, S50A, A53Q, S54G, S55K, G56A, N57T, R58S
VL: B1 VL
notes: phage clone supernatant
B14: 10F4-1H4 scFv (scFv, V domains shown)
VH: B9 VH with Y27F, T28N, D30T, S31N, D52S, D55G, S56G, V57Y, A58T
VL: B1 VL
notes: phage clone supernatant
B15: 10F4-1F2 scFv (scFv, V domains shown)
VH: B2 VH with D27Y, I28N, G30T, W33Y, D52S, S54Y, G56D, F59N
VL: B1 VL
notes: phage clone supernatant
B16: 10F4-2E1 scFv (scFv, V domains shown)
VH: B6 VH with I28T, D30T, G31T, V50G, D53Y, H54S, G55K, G56Y, K58T, F59H
VL: B1 VL
notes: phage clone supernatant
B17: 10F4-2A1 scFv (scFv, V domains shown)
VH: B6 VH with F27Y, I28T, G31D, V50G, D53A, G55S, G56D, Y57N, F59R
VL: B1 VL
notes: phage clone supernatant
B18: 10F4-1G5 scFv (scFv, V domains shown)
VH: B9 VH with Y32S, A50S, G53A, T54Y, D55G, S56D, V57Y, A58N, Y59F
VL: B1 VL
notes: phage clone supernatant
B19: 10F4-1H7 scFv (scFv, V domains shown)
VH: B6 VH with F27Y, I28S, G31T, V50G, D53Q, H54Y, G55K, K58T, F59S
VL: B1 VL
notes: phage clone supernatant
B20: 10F4-1E10 scFv (scFv, V domains shown)
VH: EVQLVESGGGLVQPGGSLRLSCAASGDTFDTYAMSWVRQAPGKGLEWVSGISQWGAYASYADSVKGRFTISRDNSKNTLYLQMNSLRAEDTAVYYCAREYSDVVDYVSVRTPLDYWGQGTLVTVSS
VL: B1 VL
notes: phage clone supernatant
B21: 10F4-2C4 scFv (scFv, V domains shown)
VH: B7 VH with N28S, S33W, T53S, T54G, A56G, Y57N, T58K
VL: B1 VL
notes: phage clone supernatant
B22: 10F4-2G2 scFv (scFv, V domains shown)
VH: EVQLVESGGGLVQPGGSLRLSCAASGYNFTDYDMSWVRQAPGKGLEWVSSIIASGSGNYYADSVKGRFTISRDNSKNTLYLQMNSLRAEDTAVYYCAREYSDVVDYVSVRTPLDYWGQGTLVTVSS
VL: B1 VL
notes: phage clone supernatant
B23: 10F4-3 scFv (scFv, V domains shown)
VH: B7 VH with Y27F, N28S, Y32F, S33A, T53G, T54H, S55T, T58N, R59S
VL: B1 VL
notes: phage clone supernatant
B24: 10F4-2C6 scFv (scFv, V domains shown)
VH: B6 VH with I28N, D30G, Y32F, V50G, D53Q, H54Y, G55K, K58T, F59S
VL: B1 VL
notes: phage clone supernatant
B25: 10F4-1H6 scFv (scFv, V domains shown)
VH: B1 VH with I28N, S30Y, F32Y, Q53T, S54H, A56G, I58N, N59G
VL: B1 VL
notes: phage clone supernatant
B26: 10F4-2H5 scFv (scFv, V domains shown)
VH: B2 VH with D27Y, G30T, A53Q, S54G, R58I
VL: B1 VL
notes: phage clone supernatant
B27: 10F4-1F8 scFv (scFv, V domains shown)
VH: B22 VH with N28T, A53T, S54D, S56G, N58A, Y59F
VL: B1 VL
notes: phage clone supernatant
B28: 10F4-1E12 scFv (scFv, V domains shown)
VH: B20 VH with D27Y, T28N, D30S, T31S, A33D, Q53D, W54T, A56D, S59N
VL: B1 VL
notes: phage clone supernatant
B29: 10F4-2F11 scFv (scFv, V domains shown)
VH: B22 VH with D31S, S50G, I52K, A53T, S54G, S56G, G57S, N58A, Y59R
VL: B1 VL
notes: phage clone supernatant
B30: 10F4-1H1 scFv (scFv, V domains shown)
VH: B1 VH with F27Y, I28S, S30G, D31N, S54Y, S55K, A56G, G57Y, I58T, N59S
VL: B1 VL
notes: phage clone supernatant
B31: 10F4-1G8 scFv (scFv, V domains shown)
VH: B1 VH with I28N, G50V, Q53P, S55G, A56D, G57Y
VL: B1 VL
notes: phage clone supernatant
B32: 10F4-1H11 scFv (scFv, V domains shown)
VH: EVQLVESGGGLVQPGGSLRLSCAASGYTFTGFWMSWVRQAPGKGLEWVSSISPDSGTKHYADSVKGRFTISRDNSKNTLYLQMNSLRAEDTAVYYCAREYSDVVDYVSVRTPLDYWGQGTLVTVSS
VL: B1 VL
notes: phage clone supernatant

Biological target: T1, human Nectin-4 extracellular antigen …
Assay: ELISA, phage scFv supernatant 1:50

Binder | OD value
B1 | 1.46 OD
B2 | 1.63 OD
B3 | 1.5 OD
B4 | 1.57 OD
B5 | 1.63 OD
B6 | 1.31 OD
B7 | 1.45 OD
B8 | 1.54 OD
B9 | 1.43 OD
B10 | 1.38 OD
B11 | 1.59 OD
B12 | 1.48 OD
B13 | 1.45 OD
B14 | 1.38 OD
B15 | 1.4 OD
B16 | 1.6 OD

Binder | OD value
B17 | 1.76 OD
B18 | 1.41 OD
B19 | 1.49 OD
B20 | 1.29 OD
B21 | 1.53 OD
B22 | 1.49 OD
B23 | 1.32 OD
B24 | 1.52 OD
B25 | 1.48 OD
B26 | 1.44 OD
B27 | 1.49 OD
B28 | 1.52 OD
B29 | 1.46 OD
B30 | 1.61 OD
B31 | 1.52 OD
B32 | 1.56 OD
